In PMC6677171, “Subunit interactions and arrangements in the fission yeast Mis16–Mis18–Mis19 complex” (Life Science Alliance, 2019):

Target: Mis16 (S. pombe), full length, affinity tag removed (S. pombe), O94244
Test: ITC; iTC200, 30°C; 50 mM Tris pH 7.5, 100 mM NaCl, 4% glycerol, 0.5 TCEP; 26 μM protein in the cell, 260 μM peptide injected

Chain of Mis16 (S. pombe), full length, affinity tag removed (S. pombe), O94244 (O94244 whole entry): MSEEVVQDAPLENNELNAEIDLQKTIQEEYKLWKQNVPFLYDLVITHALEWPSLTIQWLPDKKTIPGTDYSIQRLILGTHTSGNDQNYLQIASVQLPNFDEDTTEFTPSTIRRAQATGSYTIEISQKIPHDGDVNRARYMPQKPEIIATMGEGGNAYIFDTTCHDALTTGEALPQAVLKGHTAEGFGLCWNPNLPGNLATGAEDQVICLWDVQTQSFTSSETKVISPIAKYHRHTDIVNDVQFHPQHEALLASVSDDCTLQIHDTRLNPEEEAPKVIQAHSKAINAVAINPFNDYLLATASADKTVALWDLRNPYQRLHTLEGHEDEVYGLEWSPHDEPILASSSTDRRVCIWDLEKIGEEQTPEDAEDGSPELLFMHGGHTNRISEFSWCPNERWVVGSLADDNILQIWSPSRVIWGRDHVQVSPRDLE

Kd: 51 nM
Binder: LHNRAFLRRNVRAVKM (modifications not checked) [Mis19 C-terminal peptide (residues 97–112) with V101 mutated, O42995 97-112]
